# Results from paper PMC9884143 (The Journal of Biological Chemistry, 2023).
# Positions count from the first letter of the chain named.
# B1: CoV2-YD-5 (VHH)
# VHH: QVQLVESGGGLVQAGGSLRLSCVASGTTISTYNLLWFRQAPGQQREWVASISSGGDTSYAGSVKGRFTISRDNTENTMYLQMNSLKPEDTAVYYCHGANAAHGMDYWGKGTQVTVS
# B2: CoV2-YD-35 (VHH)
# VHH: DVQLVESGGGLVQAGDSLRLSCTASGRTFTTNAMGWFRQAPGKEREFVAAISWSYGTTYYSDPVEGRFTISRSNAKNTVYLQMNSLKPDDTAVYYCTLRSRFNAAAWTTEAAFDYWGQGTQVTVS
# B3: CoV2-YD-37 (VHH)
# VHH: B2 VHH with S54N, G56D
# B4: CoV2-YD-38 (VHH)
# VHH: B2 VHH with T23A, S54N, Y55S, E65K, S73D, D89G, A105Y, A111N
# B5: CoV2-YD-36 (VHH)
# VHH: B2 VHH with D1Q, S52T
# B6: CoV2-YD-11 (VHH)
# VHH: QVQLVESGGGLVQAGGSLRLSCVVSGTTFSRYDMGWYRQAPGKARETVATISRSGTTNYAYFVKGRFTITRDNAKNTVYLQMNSLKPEDTAVYYCYIFGLDYWGQGTQVTVS
# B7: Rescue-1 (VHH)
# VHH: DVQLVESGGGLVQAGDSLRLSCTASGRTFTTNAMGWFRQAPGKEREFVAAITWSYGTTYYSDPVEGRFTISRDNAKNTVYLQMNSLKPEDTAVYYCFYERLAWDTSTYWGQGTQVTVS
# B8: Rescue-2 (VHH)
# VHH: B7 VHH with T52S, S54N, G56D
# B9: Rescue-3 (VHH)
# VHH: B7 VHH with T52S, S54N, Y55S, E65K
# B10: CoV2-YD-14 (VHH)
# VHH: QVQLVESGGGLVQAGGSLRLSCSASGNTFSTYSLSWYRQAPGKQREFVAAISSGGSTSYANSVKGRFSISRDNAKKTMYLQMNSLKPEDTAVYYCYVVTTLMDYWGQGTQVTVS
# B11: CoV2-YD-13 (VHH)
# VHH: QVQLVESGGGLVQAGGSLRLSCAASGFTFDDYAIGWFRQAPGKEREGVSCISSSGGFTNYADSVKGRFTISSDNAKNTVYLQMNSLKPEDTAVYYCAVVVNGYGLDEWAYDYWGQGTQVTVS
# B12: CoV2-YD-12 (VHH)
# VHH: QVQLVESGGGLVQAGGSLRLSCAASGSTFSRLNILWWRQAAGKPREWVATSTDGGTRNYAAAVKGRFTISRDNAKNTVYLQMNSLKPEDTAVYYCYTPDYWGQGTQVTVS
# Assays:
# [1] = molecular target: SARS-CoV-2 Spike receptor-binding domain (RBD), B.1.1.529 (Omicron) variant (SARS-CoV-2, Omicron B.1.1.529 (BA.1 RBD), strain)
# [2] = molecular target: SARS-CoV-2 Spike receptor-binding domain (RBD), Delta variant (SARS-CoV-2, Delta (B.1.617.2; L452R, …, strain)
Binder,Kd [1] [nM],Kd [2] [nM]
B1,0.66,–
B2,0.465,0.185
B3,1.56,2.4
B4,2.82,0.256
B5,0.263,0.022
B6,0.721,–
B7,7.02,14.1
B8,27,11.2
B9,60.6,27.1
B10,0.655,–
B11,3.64,45.4
B12,0.416,–
